Measurements taken from the nanobody polyreactivity screen of Harvey et al. (2022).

Assay: yeast display, Sf9 membrane polyspecificity reagent, FACS + sequencing; frameworks hold sequencing errors
In short: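 Nanobodies from a synthetic yeast display library (Saccharomyces cerevisiae BJ5465), induced 36–48 hours with galactose, were stained 1 hour at 4 °C with 10% biotinylated, detergent-solubilized Sf9 membrane reagent, enriched on streptavidin microbeads, then FACS-sorted. Anti-HA (expression) and streptavidin (reagent binding) fluorescence set low and high (top ~1%) gates. Polyreactivity labels come from the gate of origin. Genes were colony-PCR amplified, MiSeq 2 × 250 sequenced and filtered by CDR length.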

Sequence	polyreactivity (PSR sort gate)
QVQLVESGGGLVQAGGSLRLSCAASGSTFFHYPMGWYIQATGKERELVAAISWSGGRTSYADSVKGRFTISRDNAKNTVYLQKNSLKPEDTAVYYCAARGRYKDVYRMDYWGQGTQVTVSS	high polyreactivity
QVQLVESGGGLVQAGGSLRLSCAASGRTFEGNAMGWSRQAPGKERELVAAISTSGGRTYYADSVKGRFTISRDNAKKSVYLQMNSLKPEDTAVYYCATSFYVYPTYYILDYWGQGTQVTVSS	low polyreactivity
QVQLVESGGGLVQAGGSLRLSCAASGRIFYSNVMGWYRQAPGKERELVAAIRFSGGGTYYADSVKGRFTITRDNAKNTVYLQMNSLKPEDTAVYYCAAEYYLRVSGRTYVTSHDYWGQGTQVTVSS	high polyreactivity
QVQLVESGGGLVQAGGSLRLSCAASGSIFRQYAMGWYRQAPGKERELVAAITYSGGNTYYADSVKGRFTISRDNAKNTVYVQMNSLKPEDTAVYYCAADYGSRSWEYNYWGQGTQVTVSS	low polyreactivity
QVQLVESGGGLVQAGGSLRLSCSASGSTFRQYAMGWYRQAPGKERELVAAITWRGDNTYYADSVKGRFTISRDNAKNTVYLQMNSLKPEDTADYYCGARWSYRLYWGYGYWGQGTQVTVSS	low polyreactivity
QDQLVESGGGLVQAGGSLRLSFAASGNIFRYYAMGWYRQAPGKERELVAAISRSGGNTYYADSVKGRFTISRDNAKNTVYLQMNSLKTEDTAVYYCAVVLSTYSYADYDYWGQGTQVTLSS	high polyreactivity
QDQLVESVGCLVQAGGSLRLSCAATGRIFQSYAMGWYRQAPGKERELVAGIRAGGGRTYYADSVKGRFTISRDIAKNTVYVQMNSLKPEDTAVDYCAARFVGSFYAPFDYWGQGTLVTVSS	low polyreactivity
QVQILESGVGLVQPGGSLRLICAASGITLQFYALGWYRKATGKEAELVAAISISGGRTYYADSVKGRFTISRDNAKNTFYLQMNSLKPEDTAVYYCAAYLQRAYRYGYWGQGTQVTVSS	high polyreactivity
QVQLVESGAGLVQAGGILRLSCAASGLTFSRYTMGWSRQAPGKERELVAAITSSGGSTYYADSVKGRFTISRDNAKNTVSLEMNSLKPEDTAVNYCAARYPGTRGDGYWGLGTQVTVSS	high polyreactivity
QVQLVESGGGLVQAGGSLRLSCAASGSISFRYAMGWYRQAPGKDRELVAAITSGGGTTYYADSVKGRFTISRDNAKNTVYLQMNSMKPEDTAVYYCAKPRARQAFDYWGQGTQVTVSS	high polyreactivity
QVQLVESGGGLVQAGGSLRLSCAASGGTFGSYAMGWYRQAPGKERELVAAITGSGGRTYYADSVKGRFTISRDNAKNTVYLQMNSLKPEDTAVYYCNATRGIGPPFYYWGQGTKVTVSS	high polyreactivity
QVQLVESGGGLVQAGGSLRLSCAASVLTFETYAMGWYRQAPGKERELVAAISFSGDSTYYADSVKGRFTISRDNAKNTVYLQMNSLKPEDTAVYYCAAEQYYAWYIVGPDYYYWGQGTQVTVSS	high polyreactivity
QVQLVESGGGLVQAGGSLRLSCAASGRTIKYYDMGWYRQAPGKERELVADISGRGGSTYYADSVKGRFTISRDNAKNTVYLQMNSLIPEDTAVYYCNAEWFTSSYAHYGMEHWGQGTQVTVSS	low polyreactivity
QVQLVESGGGLVQAGGSLRLSCAASGSIFYTYVMGWYRQAPGKERELVAAISGTGGRTYYADSVKGRFTISRDNAKNTVYLQMTSLKPEDTAVYYCATRAYHKGFYRITYYYWGQGTQVTVSS	high polyreactivity
QVQLVESGGGLVQAGGSLRLSFAASGRIFTYYAMGWYRQAPGKERELVASISRSGGNTYYADSVKGRFTISRDNAKNTVYLQMNSLKPEDTAVYYCAAVYSRLDYWGQGTQVTVSS	high polyreactivity
QVQLVESGGGLVQAGGSLRLTCAASGRTFRIYAMGWYRQAPAKERELVAAIRWSGGTTYYADSVKGRFTISRDNTNNSVYLQMNSLKPEDTAVYYCNKARLGWSYRQDDYWGQGTQVTVSS	high polyreactivity
QVQLVESGGGLVQAGGSLRLSCAASGSTIGAYAMGWYRQAPGKERELVAAITFSVGSTYYADSVKGRFTISRDNAKNTVYLQMNSLKPEDTAVYYCAADYYIYRSKYYQSTIQGYYYWGQGTQVTVSS	high polyreactivity
QVQLVESGGGLVQAGGSLRLSCAASGNTFGGYAMGWYRQAPGKERELVATISYADSVKGRFTISRDNAKNTVYLQMNSLKPEDTAVYYCNKQFGYPWEYYSYSYDYWGQGTQVTVSS	low polyreactivity
QVQHVESGGGLVQPGGSHRLSCAASGSTFQIYAMRWYRQAPGKVRELVAAITSSSSTNYADSVKGRFTISRDNAKNTDYLQMNSLKPEDPAVYYCAADVSRRCNWYDYWGQGTQVTVSS	low polyreactivity
QVQLVESGGGLVQAGGSLRLSCAASGRIIDFYTMGWYRQAPGKERELVAGINGSGASTYYADSVKGRFTISRDNAKNTVYLQMNCLKPEDTAVYYCAKDPGYYDDYDYWGQGTQVTVSS	low polyreactivity
QVQLVESGGGLVQAGGSLRLSCAASGSTFRQYAMGWYRQAPGKERELVAAISSSGSTTYYADSVKGRFTISRDNAKNTVDVQMNSRKPEDTAVYYCAATYGFYYFPYDYWGQGTQVTVSS	low polyreactivity
QVQLVESGGGLVQAGGSLRLSCAASGRIFEHYAMGWYRQAPGKERELVAAITVSGGSTYYADSVKGRFTISRDNAKNTVYLQMNSLKPEDTAVYYCNADQRDYGSYVTKLDYWGQGTQVTVSS	low polyreactivity
